The source of these data is the supplement of paper PMC5998384.

For data set [1], the system named is HeLa Kyoto. Briefly: solubility in G1/S (NP-40 vs SDS abundance) (log2 ratio); higher = more soluble. Conditions: cell cycle stage: G1/S.
Data set [2] relates to HeLa Kyoto. Description: thermal stability score vs G1/S (z-score of summed log2 fold changes over temperatures); higher = more thermally stable than in G1/S.
The subject of data set [3] is HeLa Kyoto. Briefly: solubility change mitosis vs G1/S (difference of NP-40 vs SDS log2 ratios) (log2 ratio difference); higher = more soluble in mitosis.
Data set [4] concerns HeLa Kyoto. Briefly: melting temperature (median over replicates), in situ; higher = more thermally stable.
The mark [5] stands for this setting: cell cycle stage: early G1 (4.5 h after nocodazole release).
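For melting temperature (median over replicates), in situ in this document: HeLa Kyoto cells synchronized by double thymidine or nocodazole block, proteins quantified by TMT10plex mass spectrometry, three independent biological replicates.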
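For solubility change mitosis vs G1/S (difference of NP-40 vs SDS log2 ratios) in this document: synchronized HeLa Kyoto cells (double thymidine block for G1/S, nocodazole release for mitosis), protein amounts in NP-40 versus SDS lysates quantified by mass spectrometry, three biological replicates.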
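For solubility in G1/S (NP-40 vs SDS abundance) in this document: HeLa Kyoto cells arrested at G1/S by double thymidine block, proteins quantified by TMT10plex mass spectrometry in mild NP-40 versus SDS extracts, three biological replicates.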
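For thermal stability score vs G1/S (z-score of summed log2 fold changes over temperatures) in this document: synchronized HeLa Kyoto cells, proteins quantified by TMT10plex mass spectrometry, three biological replicates, mitosis taken 0.5 h after nocodazole release, G1/S directly after double thymidine block.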

Regarding “MATRVEEAARGRGGGAEEATEAGRGGRRRSPRQKFEIGTMEEAGICGLGVKADMLCNSQSNDILQHQGSNCGGTSNKHSLEEDEGSDFITENRNLVSPAYCTQESREEIPGGEARTDPPDGQQDSECNRNKEKTLGKEVLLLMQALNTLSTPEEKLAALCKKYADLLEESRSVQKQMKILQKKQAQIVKEKVHLQSEHSKAILARSKLESLCRELQRHNKTLKEENMQQAREEEERRKEATAHFQITLNEIQAQLEQHDIHNAKLRQENIELGEKLKKLIEQYALREEHIDKVFKHKELQQQLVDAKLQQTTQLIKEADEKHQREREFLLKEATESRHKYEQMKQQEVQLKQQLSLYMDKFEEFQTTMAKSNELFTTFRQEMEKMTKKIKKLEKETIIWRTKWENNNKALLQMAEEKTVRDKEYKALQIKLERLEKLCRALQTERNELNEKVEVLKEQVSIKAAIKAANRDLATPVMQPCTALDSHKELNTSSKRALGAHLEAEPKSQRSAVQKPPSTGSAPAIESVD [TXLNG]”, the “solubility in G1/S (log2)” value in data set [1] was found to be 0.584. The thermal stability score is -0.882 in data set [2] (setting [5]) and -2.17 in data set [2] (cell cycle stage: mitosis). Further, the “solubility change mitosis (log2)” value in data set [3] came to 0.0514. The melting temperature in data set [4] (cell cycle stage: G1/S) and in data set [4] (cell cycle stage: mitosis) was 52.5 °C in each case.
“MATSSMSKGCFVFKPNSKKRKISLPIEDYFNKGKNEPEDSKLRFETYQLIWQQMKSENERLQEELNKNLFDNLIEFLQKSHSGFQKNSRDLGGQIKLREIPTAALVLGVNVTDHDLTFGSLTEALQNNVTPYVVSLQAKDCPDMKHFLQKLISQLMDCCVDIKSKEEESVHVTQRKTHYSMDSLSSWYMTVTQKTDPKMLSKKRTTSSQWQSPPVVVILKDMESFATKVLQDFIIISSQHLHEFPLILIFGIATSPIIIHRLLPHAVSSLLCIELFQSLSCKEHLTTVLDKLLLTTQFPFKINEKVLQVLTNIFLYHDFSVQNFIKGLQLSLLEHFYSQPLSVLCCNLPEAKRRINFLSNNQCENIRRLPSFRRYVEKQASEKQVALLTNERYLKEETQLLLENLHVYHMNYFLVLRCLHKFTSSLPKYPLGRQIRELYCTCLEKNIWDSEEYASVLQLLRMLAKDELMTILEKCFKVFKSYCENHLGSTAKRIEEFLAQFQSLDETKEEEDASGSQPKGLQKTDLYHLQKSLLEMKELRRSKKQTKFEVLRENVVNFIDCLVREYLLPPETQPLHEVVYFSAAHALREHLNAAPRIALHTALNNPYYYLKNEALKSEEGCIPNIAPDICIAYKLHLECSRLINLVDWSEAFATVVTAAEKMDANSATSEEMNEIIHARFIRAVSELELLGFIKPTKQKTDHVARLTWGGC [ORC3]”: the “solubility in G1/S (log2)” value in data set [1] is -0.303. Moreover, the thermal stability score was determined as 1.65 in data set [2] (setting [5]) and 2.89 in data set [2] (cell cycle stage: mitosis). In addition, the “solubility change mitosis (log2)” value in data set [3] is -0.145. The melting temperature stood at 48 °C in data set [4] (cell cycle stage: G1/S) and 48.7 °C in data set [4] (cell cycle stage: mitosis).
In the case of “MAVARLAAVAAWVPCRSWGWAAVPFGPHRGLSVLLARIPQRAPRWLPACRQKTSLSFLNRPDLPNLAYKKLKGKSPGIIFIPGYLSYMNGTKALAIEEFCKSLGHACIRFDYSGVGSSDGNSEESTLGKWRKDVLSIIDDLADGPQILVGSSLGGWLMLHAAIARPEKVVALIGVATAADTLVTKFNQLPVELKKEVEMKGVWSMPSKYSEEGVYNVQYSFIKEAEHHCLLHSPIPVNCPIRLLHGMKDDIVPWHTSMQVADRVLSTDVDVILRKHSDHRMREKADIQLLVYTIDDLIDKLSTIVN [ABHD10]”, in data set [1], the “solubility in G1/S (log2)” value amounted to 0.191. Besides, the thermal stability score in data set [2] (setting [5]) was 1.29; in data set [2] (cell cycle stage: mitosis), -0.803. Also, in data set [3], the “solubility change mitosis (log2)” value was -0.147. The results for the melting temperature in data set [4] (cell cycle stage: G1/S) and in data set [4] (cell cycle stage: mitosis) were 57.4 °C and 57.6 °C, respectively.
Consider “MAVFADLDLRAGSDLKALRGLVETAAHLGYSVVAINHIVDFKEKKQEIEKPVAVSELFTTLPIVQGKSRPIKILTRLTIIVSDPSHCNVLRATSSRARLYDVVAVFPKTEKLFHIACTHLDVDLVCITVTEKLPFYFKRPPINVAIDRGLAFELVYSPAIKDSTMRRYTISSALNLMQICKGKNVIISSAAERPLEIRGPYDVANLGLLFGLSESDAKAAVSTNCRAALLHGETRKTAFGIISTVKKPRPSEGDEDCLPASKKAKCEG [RPP30]”, for which the “solubility in G1/S (log2)” value in data set [1] is -0.0469. For the same sequence, the thermal stability score in data set [2] (setting [5]) is -0.0475; in data set [2] (cell cycle stage: mitosis), -1.92. Further, the “solubility change mitosis (log2)” value in data set [3] is -0.0188. The melting temperature in data set [4] (cell cycle stage: G1/S) was 55.3 °C; in data set [4] (cell cycle stage: mitosis) it was 56.1 °C.
As to “MAVFDTPEEAFGVLRPVCVQLTKTQTVENVEHLQTRLQAVSDSALQELQQYILFPLRFTLKTPGPKRERLIQSVVECLTFVLSSTCVKEQELLQELFSELSACLYSPSSQKPAAVSEELKLAVIQGLSTLMHSAYGDIILTFYEPSILPRLGFAVSLLLGLAEQEKSKQIKIAALKCLQVLLLQCDCQDHPRSLDELEQKQLGDLFASFLPGISTALTRLITGDFKQGHSIVVSSLKIFYKTVSFIMADEQLKRISKVQAKPAVEHRVAELMVYREADWVKKTGDKLTILIKKIIECVSVHPHWKVRLELVELVEDLLLKCSQSLVECAGPLLKALVGLVNDESPEIQAQCNKVLRHFADQKVVVGNKALADILSESLHSLATSLPRLMNSQDDQGKFSTLSLLLGYLKLLGPKINFVLNSVAHLQRLSKALIQVLELDVADIKIVEERRWNSDDLNASPKTSATQPWNRIQRRYFRFFTDERIFMLLRQVCQLLGYYGNLYLLVDHFMELYHQSVVYRKQAAMILNELVTGAAGLEVEDLHEKHIKTNPEELREIVTSILEEYTSQENWYLVTCLETEEMGEELMMEHPGLQAITSGEHTCQVTSFLAFSKPSPTICSMNSNIWQICIQLEGIGQFAYALGKDFCLLLMSALYPVLEKAGDQTLLISQVATSTMMDVCRACGYDSLQHLINQNSDYLVNGISLNLRHLALHPHTPKVLEVMLRNSDANLLPLVADVVQDVLATLDQFYDKRAASFVSVLHALMAALAQWFPDTGNLGHLQEQSLGEEGSHLNQRPAALEKSTTTAEDIEQFLLNYLKEKDVADGNVSDFDNEEEEQSVPPKVDENDTRPDVEPPLPLQIQIAMDVMERCIHLLSDKNLQIRLKVLDVLDLCVVVLQSHKNQLLPLAHQAWPSLVHRLTRDAPLAVLRAFKVLRTLGSKCGDFLRSRFCKDVLPKLAGSLVTQAPISARAGPVYSHTLAFKLQLAVLQGLGPLCERLDLGEGDLNKVADACLIYLSVKQPVKLQEAARSVFLHLMKVDPDSTWFLLNELYCPVQFTPPHPSLHPVQLHGASGQQNPYTTNVLQLLKELQ [TTI1]”, in data set [1], the “solubility in G1/S (log2)” value was -0.12. The thermal stability score in data set [2] (setting [5]) was determined as 0.152; in data set [2] (cell cycle stage: mitosis), 0.696. Also, the “solubility change mitosis (log2)” value in data set [3] was -0.179. Moreover, the melting temperature was determined as 49.6 °C in data set [4] (cell cycle stage: G1/S) and 49.9 °C in data set [4] (cell cycle stage: mitosis).
